According to the supplement of paper PMC10567573:

B1: SMG5 (parent)
chain: TNPDLIIVCAQSSQSLWNRLSVLL

Variants of: B1
Experiment: protein stability index of a GFP-peptide fusion (GPS, HEK-293T) (PSI 1-6); higher = more stable
Settings: c terminus: a fixed tail appended
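Also: lentivirally expressed fusions sorted by FACS into six bins by GFP to DsRed ratio, PSI derived from sequencing read proportions per bin multiplied by bin number.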

Variant	protein stability index
TNPDLIIVCAQSSQSMWNRLSVLL [L16M]	3.23
TNPDLIIVCAQSSQSDWNRLSVLL [L16D]	3.33
TNPDLIIVCAQSSQSIWNRLSVLL [L16I]	2.02
TNPDLIIVCAQSSQSWWNRLSVLL [L16W]	1.93
TNPDLIIVCAQSSQSPWNRLSVLL [L16P]	3.37
TNPDLIIVCAQSSQSCWNRLSVLL [L16C]	2.91
TNPDLIIVCAQSSQSEWNRLSVLL [L16E]	2.42
TNPDLIIVCAQSSQSRWNRLSVLL [L16R]	2.94
TNPDLIIVCAQSSQSQWNRLSVLL [L16Q]	2.55
TNPDLIIVCAQSSQSKWNRLSVLL [L16K]	3.19
TNPDLIIVCAQSSQSFWNRLSVLL [L16F]	3.11
TNPDLIIVCAQSSQSTWNRLSVLL [L16T]	3.24
TNPDLIIVCAQSSQSVWNRLSVLL [L16V]	1.51
TNPDLIIVCAQSSQSHWNRLSVLL [L16H]	3.7
TNPDLIIVCAQSSQSYWNRLSVLL [L16Y]	2.81
TNPDLIIVCAQSSQSNWNRLSVLL [L16N]	2.81
TNPDLIIVCAQSSQSAWNRLSVLL [L16A]	2.1
TNPDLIIVCAQSSQSSWNRLSVLL [L16S]	2.53
TNPDLIMVCAQSSQSLWNRLSVLL [I7M]	1.67
TNPDLIRVCAQSSQSLWNRLSVLL [I7R]	2.02
TNPDLIQVCAQSSQSLWNRLSVLL [I7Q]	1.6
TNPDLIPVCAQSSQSLWNRLSVLL [I7P]	2.41
TNPDLITVCAQSSQSLWNRLSVLL [I7T]	1.66
TNPDLIKVCAQSSQSLWNRLSVLL [I7K]	1.71

Variant	protein stability index
TNPDLINVCAQSSQSLWNRLSVLL [I7N]	1.64
TNPDLIAVCAQSSQSLWNRLSVLL [I7A]	1.51
TNPDLIVVCAQSSQSLWNRLSVLL [I7V]	1.1
TNPDLIHVCAQSSQSLWNRLSVLL [I7H]	1.68
TNPDLICVCAQSSQSLWNRLSVLL [I7C]	2.48
TNPDLIFVCAQSSQSLWNRLSVLL [I7F]	1.45
TNPDLIDVCAQSSQSLWNRLSVLL [I7D]	1.7
TNPDLIEVCAQSSQSLWNRLSVLL [I7E]	2.25
TNPDLIGVCAQSSQSLWNRLSVLL [I7G]	2.55
TNPDLISVCAQSSQSLWNRLSVLL [I7S]	1.34
TNPDLIWVCAQSSQSLWNRLSVLL [I7W]	4.05
TNPDLIYVCAQSSQSLWNRLSVLL [I7Y]	1.65
TNPDLILVCAQSSQSLWNRLSVLL [I7L]	3.84
TNPDLIIVCAQNSQSLWNRLSVLL [S12N]	1.99
TNPDLIIVCAQPSQSLWNRLSVLL [S12P]	1.33
TNPDLIIVCAQESQSLWNRLSVLL [S12E]	2.22
TNPDLIIVCAQFSQSLWNRLSVLL [S12F]	3.37
TNPDLIIVCAQYSQSLWNRLSVLL [S12Y]	4.01
TNPDLIIVCAQKSQSLWNRLSVLL [S12K]	1.89
TNPDLIIVCAQRSQSLWNRLSVLL [S12R]	3.06
TNPDLIIVCAQCSQSLWNRLSVLL [S12C]	3.33
TNPDLIIVCAQHSQSLWNRLSVLL [S12H]	3.49
TNPDLIIVCAQLSQSLWNRLSVLL [S12L]	3.9
TNPDLIIVCAQGSQSLWNRLSVLL [S12G]	2.1

Variant	protein stability index
TNPDLIIVCAQMSQSLWNRLSVLL [S12M]	2.99
TNPDLIIVCAQDSQSLWNRLSVLL [S12D]	2.12
TNPDLIIVCAQISQSLWNRLSVLL [S12I]	3.02
TNPDLIIVCNQSSQSLWNRLSVLL [A10N]	1.95
TNPDLIIVCQQSSQSLWNRLSVLL [A10Q]	2.4
TNPDLIIVCHQSSQSLWNRLSVLL [A10H]	2.68
TNPDLIIVCFQSSQSLWNRLSVLL [A10F]	3.77
TNPDLIIVCRQSSQSLWNRLSVLL [A10R]	1.8
TNPDLIIVCMQSSQSLWNRLSVLL [A10M]	2.8
TNPDLIIVCGQSSQSLWNRLSVLL [A10G]	1.98
TNPDLIIVCWQSSQSLWNRLSVLL [A10W]	2.35
TNPDLIIVCPQSSQSLWNRLSVLL [A10P]	4.01
TNPDLIIVCYQSSQSLWNRLSVLL [A10Y]	3.09
TNPDLIIVCIQSSQSLWNRLSVLL [A10I]	3.25
TNPDLIIVCCQSSQSLWNRLSVLL [A10C]	2.61
TNPDLIIVCDQSSQSLWNRLSVLL [A10D]	2.01
TNPDLIIVCSQSSQSLWNRLSVLL [A10S]	2.94
TNPDLIIVCVQSSQSLWNRLSVLL [A10V]	4.35
TNPDLIIVCKQSSQSLWNRLSVLL [A10K]	1.59
TNPDLIIVCTQSSQSLWNRLSVLL [A10T]	2.17
TNPDLIIVCAQSSQSLCNRLSVLL [W17C]	4.36
TNPDLIIVCAQSSQSLANRLSVLL [W17A]	4.21
TNPDLIIDCAQSSQSLWNRLSVLL [V8D]	2.09
TNPDLIIACAQSSQSLWNRLSVLL [V8A]	1.43

Variant	protein stability index
TNPDLIIECAQSSQSLWNRLSVLL [V8E]	1.56
TNPDLIILCAQSSQSLWNRLSVLL [V8L]	3.74
TNPDLIICCAQSSQSLWNRLSVLL [V8C]	1.36
TNPDLIIKCAQSSQSLWNRLSVLL [V8K]	1.47
TNPDLIITCAQSSQSLWNRLSVLL [V8T]	1.72
TNPDLIIMCAQSSQSLWNRLSVLL [V8M]	1.46
TNPDLIIYCAQSSQSLWNRLSVLL [V8Y]	2.59
TNPDLIIWCAQSSQSLWNRLSVLL [V8W]	2.69
TNPDLIISCAQSSQSLWNRLSVLL [V8S]	1.7
TNPDLIIICAQSSQSLWNRLSVLL [V8I]	2.93
TNPDLIINCAQSSQSLWNRLSVLL [V8N]	1.88
TNPDLIIPCAQSSQSLWNRLSVLL [V8P]	1.31
TNPDLIIQCAQSSQSLWNRLSVLL [V8Q]	1.85
TNPDLIIRCAQSSQSLWNRLSVLL [V8R]	2.22
TNPDLIIHCAQSSQSLWNRLSVLL [V8H]	1.91
TNPDLIIGCAQSSQSLWNRLSVLL [V8G]	2.27
TNPDLIIVCAQSSQILWNRLSVLL [S15I]	4.01
TNPDLIIVCAQSSQNLWNRLSVLL [S15N]	3.11
TNPDLIIVCAQSSQMLWNRLSVLL [S15M]	3.28
TNPDLIIVCAQSSQKLWNRLSVLL [S15K]	3.11
TNPDLIIVCAQSSQCLWNRLSVLL [S15C]	3.21
TNPDLIIVCAQSSQHLWNRLSVLL [S15H]	2.18
